B1: CAP256V2LS-J3-5 (bispecific antibody)
heavy chain: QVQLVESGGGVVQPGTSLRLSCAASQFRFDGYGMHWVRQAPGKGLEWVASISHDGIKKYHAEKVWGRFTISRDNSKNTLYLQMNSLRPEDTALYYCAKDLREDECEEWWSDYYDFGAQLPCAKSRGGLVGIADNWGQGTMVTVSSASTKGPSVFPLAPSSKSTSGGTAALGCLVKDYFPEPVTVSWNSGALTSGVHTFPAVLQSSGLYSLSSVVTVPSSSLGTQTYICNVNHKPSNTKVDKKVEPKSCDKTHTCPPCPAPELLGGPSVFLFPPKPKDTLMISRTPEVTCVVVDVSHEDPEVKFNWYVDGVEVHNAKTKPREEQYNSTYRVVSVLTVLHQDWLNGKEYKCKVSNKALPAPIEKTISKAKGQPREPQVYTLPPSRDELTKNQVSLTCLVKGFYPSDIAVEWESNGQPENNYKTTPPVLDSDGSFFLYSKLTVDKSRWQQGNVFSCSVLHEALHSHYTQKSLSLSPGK
light chain (J3 VHH, linker, CAP256V2LS LC): EVQLVESGGGLVQAGGFLRLSCELRGSIFNQYAMAWFRQAPGKEREFVAGMGAVPHYGEFVKGRFTISRDNAKSTVYLQMSSLKPEDTAIYFCARSKSTYISYNSNGYDYWGRGTQVTVSSDKTHTGDKTHTQSVLTQPPSVSAAPGQKVTISCSGNTSNIGNNFVSWYQQRPGRAPQLLIYETDKRPSGIPDRFSASKSGTSGTLAITGLQTGDEADYYCATWAASLSSARVFGTGTQVIVLGQPKVNPTVTLFPPSSEELQANKATLVCLISDFYPGAVTVAWKADSSPVKAGVETTTPSKQSNNKYAASSYLSLTPEQWKSHRSYSCQVTHEGSTVEKTVAPTECS
B2: CAP256V2LS-10E8-2 (bispecific antibody)
heavy chain: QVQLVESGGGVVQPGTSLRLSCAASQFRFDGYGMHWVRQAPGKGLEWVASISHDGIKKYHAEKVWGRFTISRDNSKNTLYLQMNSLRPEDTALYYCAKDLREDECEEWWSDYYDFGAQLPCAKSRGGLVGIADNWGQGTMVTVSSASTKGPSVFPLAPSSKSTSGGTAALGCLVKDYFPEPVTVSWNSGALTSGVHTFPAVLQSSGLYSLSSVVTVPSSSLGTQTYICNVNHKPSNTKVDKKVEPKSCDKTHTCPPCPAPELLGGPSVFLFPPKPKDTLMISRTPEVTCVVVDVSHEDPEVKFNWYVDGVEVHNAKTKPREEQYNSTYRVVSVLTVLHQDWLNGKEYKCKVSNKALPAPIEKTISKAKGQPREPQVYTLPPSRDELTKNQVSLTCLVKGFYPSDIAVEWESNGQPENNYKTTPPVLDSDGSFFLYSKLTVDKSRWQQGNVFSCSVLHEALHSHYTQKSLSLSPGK
light chain (10E8v4 scFv, linker, CAP256V2LS LC): EVRLVESGGGLVKPGGSLRLSCSASGFDFDNAWMTWVRQPPGKGLEWVGRITGPGEGWSVDYAESVKGRFTISRDNTKNTLYLEMNNVRTEDTGYYFCARTGKYYDFWSGYPPGEEYFQDWGQGTLVIVSSGGGGSGGGGSGGGGSSELTQDPAVSVALKQTVTITCRGDSLRSHYASWYQKKPGQAPVLLFYGKNNRPSGIPDRFSGSASGNRASLTITGAQAEDEADYYCSSRDKSGSRLSVFGGGTKLTVGGSGGGGSGGQSVLTQPPSVSAAPGQKVTISCSGNTSNIGNNFVSWYQQRPGRAPQLLIYETDKRPSGIPDRFSASKSGTSGTLAITGLQTGDEADYYCATWAASLSSARVFGTGTQVIVLGQPKVNPTVTLFPPSSEELQANKATLVCLISDFYPGAVTVAWKADSSPVKAGVETTTPSKQSNNKYAASSYLSLTPEQWKSHRSYSCQVTHEGSTVEKTVAPTECS
B3: CAP256V2LS-J3-4 (bispecific antibody)
heavy chain: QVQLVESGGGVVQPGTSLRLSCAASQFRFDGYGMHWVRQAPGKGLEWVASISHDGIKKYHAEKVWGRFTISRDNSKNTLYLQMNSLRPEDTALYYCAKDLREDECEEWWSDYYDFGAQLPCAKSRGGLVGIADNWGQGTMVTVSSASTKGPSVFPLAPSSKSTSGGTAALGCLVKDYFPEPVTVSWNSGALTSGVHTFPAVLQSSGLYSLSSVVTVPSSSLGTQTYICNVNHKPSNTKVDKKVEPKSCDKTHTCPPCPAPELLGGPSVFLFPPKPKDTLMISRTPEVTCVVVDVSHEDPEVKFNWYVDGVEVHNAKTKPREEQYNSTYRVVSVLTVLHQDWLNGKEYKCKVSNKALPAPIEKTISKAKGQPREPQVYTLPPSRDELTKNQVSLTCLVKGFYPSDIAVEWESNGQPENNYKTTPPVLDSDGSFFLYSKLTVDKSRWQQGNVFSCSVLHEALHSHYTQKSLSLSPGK
light chain (J3 VHH, linker, CAP256V2LS LC): EVQLVESGGGLVQAGGFLRLSCELRGSIFNQYAMAWFRQAPGKEREFVAGMGAVPHYGEFVKGRFTISRDNAKSTVYLQMSSLKPEDTAIYFCARSKSTYISYNSNGYDYWGRGTQVTVSSDKTHTQSVLTQPPSVSAAPGQKVTISCSGNTSNIGNNFVSWYQQRPGRAPQLLIYETDKRPSGIPDRFSASKSGTSGTLAITGLQTGDEADYYCATWAASLSSARVFGTGTQVIVLGQPKVNPTVTLFPPSSEELQANKATLVCLISDFYPGAVTVAWKADSSPVKAGVETTTPSKQSNNKYAASSYLSLTPEQWKSHRSYSCQVTHEGSTVEKTVAPTECS
B4: CAP256V2LS-10E8-3 (bispecific antibody)
heavy chain: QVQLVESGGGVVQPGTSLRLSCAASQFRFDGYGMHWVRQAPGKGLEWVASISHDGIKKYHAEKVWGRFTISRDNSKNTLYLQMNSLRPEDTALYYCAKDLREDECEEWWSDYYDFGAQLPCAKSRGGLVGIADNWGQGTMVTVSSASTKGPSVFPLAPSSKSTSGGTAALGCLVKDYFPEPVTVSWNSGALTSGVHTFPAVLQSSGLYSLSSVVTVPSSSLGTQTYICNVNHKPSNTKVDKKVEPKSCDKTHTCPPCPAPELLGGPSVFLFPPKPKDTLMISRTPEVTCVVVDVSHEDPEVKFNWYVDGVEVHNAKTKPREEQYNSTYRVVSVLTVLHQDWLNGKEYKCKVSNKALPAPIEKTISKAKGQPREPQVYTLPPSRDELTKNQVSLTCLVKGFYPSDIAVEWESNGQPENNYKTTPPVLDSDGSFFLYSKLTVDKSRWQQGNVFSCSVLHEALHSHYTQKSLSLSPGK
light chain (10E8v4 scFv, linker, CAP256V2LS LC): EVRLVESGGGLVKPGGSLRLSCSASGFDFDNAWMTWVRQPPGKGLEWVGRITGPGEGWSVDYAESVKGRFTISRDNTKNTLYLEMNNVRTEDTGYYFCARTGKYYDFWSGYPPGEEYFQDWGQGTLVIVSSGGGGSGGGGSGGGGSSELTQDPAVSVALKQTVTITCRGDSLRSHYASWYQKKPGQAPVLLFYGKNNRPSGIPDRFSGSASGNRASLTITGAQAEDEADYYCSSRDKSGSRLSVFGGGTKLTVGGSGGGGSGGGGSGGQSVLTQPPSVSAAPGQKVTISCSGNTSNIGNNFVSWYQQRPGRAPQLLIYETDKRPSGIPDRFSASKSGTSGTLAITGLQTGDEADYYCATWAASLSSARVFGTGTQVIVLGQPKVNPTVTLFPPSSEELQANKATLVCLISDFYPGAVTVAWKADSSPVKAGVETTTPSKQSNNKYAASSYLSLTPEQWKSHRSYSCQVTHEGSTVEKTVAPTECS
B5: CAP256V2LS-J3-6 (bispecific antibody)
heavy chain: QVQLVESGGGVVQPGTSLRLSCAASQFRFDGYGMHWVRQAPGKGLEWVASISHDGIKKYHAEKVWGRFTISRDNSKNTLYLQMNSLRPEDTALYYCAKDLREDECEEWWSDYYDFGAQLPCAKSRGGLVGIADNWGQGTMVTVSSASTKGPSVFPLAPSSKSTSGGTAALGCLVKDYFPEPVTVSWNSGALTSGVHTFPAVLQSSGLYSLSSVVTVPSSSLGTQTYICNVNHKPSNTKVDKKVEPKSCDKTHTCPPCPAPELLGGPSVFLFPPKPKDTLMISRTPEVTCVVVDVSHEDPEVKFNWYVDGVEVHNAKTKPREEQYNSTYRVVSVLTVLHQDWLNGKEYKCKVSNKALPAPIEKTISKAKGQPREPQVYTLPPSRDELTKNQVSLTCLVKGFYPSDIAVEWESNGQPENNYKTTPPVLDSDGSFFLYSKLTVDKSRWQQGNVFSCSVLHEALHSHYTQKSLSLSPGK
light chain (J3 VHH, linker, CAP256V2LS LC): EVQLVESGGGLVQAGGFLRLSCELRGSIFNQYAMAWFRQAPGKEREFVAGMGAVPHYGEFVKGRFTISRDNAKSTVYLQMSSLKPEDTAIYFCARSKSTYISYNSNGYDYWGRGTQVTVSSDKTHTGDKTHTGDKTHTQSVLTQPPSVSAAPGQKVTISCSGNTSNIGNNFVSWYQQRPGRAPQLLIYETDKRPSGIPDRFSASKSGTSGTLAITGLQTGDEADYYCATWAASLSSARVFGTGTQVIVLGQPKVNPTVTLFPPSSEELQANKATLVCLISDFYPGAVTVAWKADSSPVKAGVETTTPSKQSNNKYAASSYLSLTPEQWKSHRSYSCQVTHEGSTVEKTVAPTECS
B6: CAP256V2LS-J3-2 (bispecific antibody)
heavy: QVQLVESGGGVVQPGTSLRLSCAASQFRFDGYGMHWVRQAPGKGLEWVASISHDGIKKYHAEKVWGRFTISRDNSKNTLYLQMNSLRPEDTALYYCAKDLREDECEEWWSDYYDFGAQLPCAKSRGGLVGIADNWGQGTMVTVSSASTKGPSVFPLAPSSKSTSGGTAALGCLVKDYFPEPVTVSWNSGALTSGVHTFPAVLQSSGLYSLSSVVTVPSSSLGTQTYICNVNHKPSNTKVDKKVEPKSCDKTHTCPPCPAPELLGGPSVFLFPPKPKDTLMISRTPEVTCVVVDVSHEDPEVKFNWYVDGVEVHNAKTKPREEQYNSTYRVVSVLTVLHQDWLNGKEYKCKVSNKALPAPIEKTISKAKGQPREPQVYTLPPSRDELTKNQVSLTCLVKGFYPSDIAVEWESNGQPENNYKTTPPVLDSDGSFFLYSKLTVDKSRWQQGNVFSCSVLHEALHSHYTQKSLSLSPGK
light: EVQLVESGGGLVQAGGFLRLSCELRGSIFNQYAMAWFRQAPGKEREFVAGMGAVPHYGEFVKGRFTISRDNAKSTVYLQMSSLKPEDTAIYFCARSKSTYISYNSNGYDYWGRGTQVTVSSGGSGGGGSGGQSVLTQPPSVSAAPGQKVTISCSGNTSNIGNNFVSWYQQRPGRAPQLLIYETDKRPSGIPDRFSASKSGTSGTLAITGLQTGDEADYYCATWAASLSSARVFGTGTQVIVLGQPKVNPTVTLFPPSSEELQANKATLVCLISDFYPGAVTVAWKADSSPVKAGVETTTPSKQSNNKYAASSYLSLTPEQWKSHRSYSCQVTHEGSTVEKTVAPTECS
B7: CAP256V2LS-10E8-1 (bispecific antibody)
heavy chain: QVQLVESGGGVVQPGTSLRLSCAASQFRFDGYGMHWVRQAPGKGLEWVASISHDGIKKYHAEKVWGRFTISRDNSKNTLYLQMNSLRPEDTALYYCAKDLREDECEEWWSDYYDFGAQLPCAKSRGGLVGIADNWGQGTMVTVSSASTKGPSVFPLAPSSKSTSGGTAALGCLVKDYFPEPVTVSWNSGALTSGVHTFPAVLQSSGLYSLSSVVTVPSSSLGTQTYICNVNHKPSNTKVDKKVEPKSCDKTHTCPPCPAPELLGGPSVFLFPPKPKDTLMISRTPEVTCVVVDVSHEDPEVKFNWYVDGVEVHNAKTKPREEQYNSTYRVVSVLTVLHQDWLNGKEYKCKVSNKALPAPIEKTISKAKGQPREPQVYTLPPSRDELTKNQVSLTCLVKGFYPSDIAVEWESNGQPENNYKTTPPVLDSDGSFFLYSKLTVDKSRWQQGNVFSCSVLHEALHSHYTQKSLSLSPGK
light chain (10E8v4 scFv, linker, CAP256V2LS LC): EVRLVESGGGLVKPGGSLRLSCSASGFDFDNAWMTWVRQPPGKGLEWVGRITGPGEGWSVDYAESVKGRFTISRDNTKNTLYLEMNNVRTEDTGYYFCARTGKYYDFWSGYPPGEEYFQDWGQGTLVIVSSGGGGSGGGGSGGGGSSELTQDPAVSVALKQTVTITCRGDSLRSHYASWYQKKPGQAPVLLFYGKNNRPSGIPDRFSGSASGNRASLTITGAQAEDEADYYCSSRDKSGSRLSVFGGGTKLTVGGSGGQSVLTQPPSVSAAPGQKVTISCSGNTSNIGNNFVSWYQQRPGRAPQLLIYETDKRPSGIPDRFSASKSGTSGTLAITGLQTGDEADYYCATWAASLSSARVFGTGTQVIVLGQPKVNPTVTLFPPSSEELQANKATLVCLISDFYPGAVTVAWKADSSPVKAGVETTTPSKQSNNKYAASSYLSLTPEQWKSHRSYSCQVTHEGSTVEKTVAPTECS
B8: CAP256V2LS-J3-3 (bispecific antibody)
heavy: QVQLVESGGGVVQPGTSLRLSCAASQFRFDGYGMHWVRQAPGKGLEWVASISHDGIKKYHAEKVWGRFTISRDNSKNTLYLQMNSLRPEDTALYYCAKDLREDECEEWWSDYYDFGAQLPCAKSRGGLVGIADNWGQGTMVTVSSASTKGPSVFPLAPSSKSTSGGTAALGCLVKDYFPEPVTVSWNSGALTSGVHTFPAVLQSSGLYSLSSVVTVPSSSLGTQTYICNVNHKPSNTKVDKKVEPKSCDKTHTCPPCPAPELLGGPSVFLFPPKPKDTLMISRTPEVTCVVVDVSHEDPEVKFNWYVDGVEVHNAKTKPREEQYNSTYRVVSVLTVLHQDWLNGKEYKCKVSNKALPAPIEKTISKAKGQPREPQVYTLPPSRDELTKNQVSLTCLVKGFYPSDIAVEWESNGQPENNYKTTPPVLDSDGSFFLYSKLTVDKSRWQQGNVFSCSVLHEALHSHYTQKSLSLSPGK
light: EVQLVESGGGLVQAGGFLRLSCELRGSIFNQYAMAWFRQAPGKEREFVAGMGAVPHYGEFVKGRFTISRDNAKSTVYLQMSSLKPEDTAIYFCARSKSTYISYNSNGYDYWGRGTQVTVSSGGSGGGGSGGGGSGGQSVLTQPPSVSAAPGQKVTISCSGNTSNIGNNFVSWYQQRPGRAPQLLIYETDKRPSGIPDRFSASKSGTSGTLAITGLQTGDEADYYCATWAASLSSARVFGTGTQVIVLGQPKVNPTVTLFPPSSEELQANKATLVCLISDFYPGAVTVAWKADSSPVKAGVETTTPSKQSNNKYAASSYLSLTPEQWKSHRSYSCQVTHEGSTVEKTVAPTECS

The binders below were run against T1, HIV-1 Env of strain WITO.33 (Env-pseudotyped virus) (HIV-1) (assay: cell-based or functional assay).

Row | Binder | % neutralization, single point, Env-pseudotyped virus on TZM-bl [%]
1 | B1 | 62
2 | B2 | 45
3 | B3 | 86
4 | B4 | 21
5 | B5 | 48
6 | B6 | 100
7 | B7 | 14
8 | B8 | 89

The binders below were run against CAP256 wk34c80 (HIV-1) (assay: cell-based or functional assay).

Row | Binder | % neutralization, single point, Env-pseudotyped virus on TZM-bl [%]
9 | B1 | 100
10 | B2 | 91
11 | B3 | 100
12 | B4 | 99
13 | B5 | 100
14 | B6 | 100
15 | B7 | 98
16 | B8 | 100

What follows are binders tested against HIV-1 Env of strain SC422.8 (Env-pseudotyped virus) (HIV-1) (assay: cell-based or functional assay).

Row | Binder | neutralization potency, fold better than that of J3 [fold]
17 | B6 | 3
18 | B8 | 3

Target: T1, HIV-1 Env of strain WITO.33 …
Experiment: cell-based or functional assay
Remark: another data set of the same source

Row | Binder | neutralization potency, fold better than that of J3 [fold]
19 | B6 | ~10
20 | B8 | ~10
